Values belong to the molecule of their own block, whether it stands above or below them.
What was measured:
[1] = target: SUMO-1-GST-TDG (SUMO-1-conjugated GST-TDG) (UniProt Q13569); assay: pull-down; GST pull-down: 10 nM GST or GST-fusion protein and 10 nM XPC-RAD23B with 20 ul glutathione-Sepharose in 100 ul binding buffer (20 mM sodium phosphate pH 7.4, 1 mM EDTA, 150 mM NaCl, 1 mM DTT, 5% glycerol, 0.01% Triton X-100, 100 ug/ml BSA), on ice 1 hour, eight washes, elution with 10 mM glutathione; immunoblot with anti-XPC and anti-GST
[2] = target: SUMO-1-GST-TDG (SUMO-1-conjugated GST-TDG) (UniProt Q13569)
[3] = target: GST-TDG (thymine DNA glycosylase fused to glutathione S-transferase, nonmodified) (human, UniProt Q13569 1-410); assay: cell-based or functional assay
GST-TDG (thymine DNA glycosylase fused to glutathione S-transferase, nonmodified), sequence (Q13569 whole entry, the tested form may be a part): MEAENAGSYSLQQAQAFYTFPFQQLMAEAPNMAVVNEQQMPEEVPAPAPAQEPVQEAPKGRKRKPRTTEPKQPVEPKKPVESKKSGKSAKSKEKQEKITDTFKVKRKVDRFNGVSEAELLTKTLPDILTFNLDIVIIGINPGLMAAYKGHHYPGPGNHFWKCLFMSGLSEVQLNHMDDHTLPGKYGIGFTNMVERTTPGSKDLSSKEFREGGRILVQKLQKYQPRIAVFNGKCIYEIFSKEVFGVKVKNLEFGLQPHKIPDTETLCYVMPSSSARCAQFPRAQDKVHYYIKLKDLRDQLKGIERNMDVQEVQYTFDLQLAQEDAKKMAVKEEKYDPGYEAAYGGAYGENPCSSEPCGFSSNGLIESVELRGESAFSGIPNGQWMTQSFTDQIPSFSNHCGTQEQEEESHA

[4] = target: T1, GST-SMUG1 (GST-fused SMUG1) (UniProt Q53HV7 1-270); assay: cell-based or functional assay
T1 sequence (looked up): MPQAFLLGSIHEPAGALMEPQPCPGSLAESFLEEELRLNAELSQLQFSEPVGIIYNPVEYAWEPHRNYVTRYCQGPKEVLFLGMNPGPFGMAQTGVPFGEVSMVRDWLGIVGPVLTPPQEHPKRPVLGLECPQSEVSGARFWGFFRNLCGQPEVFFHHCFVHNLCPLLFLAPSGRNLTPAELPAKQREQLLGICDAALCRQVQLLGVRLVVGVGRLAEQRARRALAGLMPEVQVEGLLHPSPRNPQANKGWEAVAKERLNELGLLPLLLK

[5] = target: T2, XPC (recombinant human XPC, alone) (human, UniProt Q01831 1-940); assay: in vitro reconstitution of the heterodimer; XPC-RAD23B-His heterodimer reconstituted in vitro from purified recombinant XPC and RAD23B-His, as described previously [17]; settings: both partners purified
T2 sequence (looked up): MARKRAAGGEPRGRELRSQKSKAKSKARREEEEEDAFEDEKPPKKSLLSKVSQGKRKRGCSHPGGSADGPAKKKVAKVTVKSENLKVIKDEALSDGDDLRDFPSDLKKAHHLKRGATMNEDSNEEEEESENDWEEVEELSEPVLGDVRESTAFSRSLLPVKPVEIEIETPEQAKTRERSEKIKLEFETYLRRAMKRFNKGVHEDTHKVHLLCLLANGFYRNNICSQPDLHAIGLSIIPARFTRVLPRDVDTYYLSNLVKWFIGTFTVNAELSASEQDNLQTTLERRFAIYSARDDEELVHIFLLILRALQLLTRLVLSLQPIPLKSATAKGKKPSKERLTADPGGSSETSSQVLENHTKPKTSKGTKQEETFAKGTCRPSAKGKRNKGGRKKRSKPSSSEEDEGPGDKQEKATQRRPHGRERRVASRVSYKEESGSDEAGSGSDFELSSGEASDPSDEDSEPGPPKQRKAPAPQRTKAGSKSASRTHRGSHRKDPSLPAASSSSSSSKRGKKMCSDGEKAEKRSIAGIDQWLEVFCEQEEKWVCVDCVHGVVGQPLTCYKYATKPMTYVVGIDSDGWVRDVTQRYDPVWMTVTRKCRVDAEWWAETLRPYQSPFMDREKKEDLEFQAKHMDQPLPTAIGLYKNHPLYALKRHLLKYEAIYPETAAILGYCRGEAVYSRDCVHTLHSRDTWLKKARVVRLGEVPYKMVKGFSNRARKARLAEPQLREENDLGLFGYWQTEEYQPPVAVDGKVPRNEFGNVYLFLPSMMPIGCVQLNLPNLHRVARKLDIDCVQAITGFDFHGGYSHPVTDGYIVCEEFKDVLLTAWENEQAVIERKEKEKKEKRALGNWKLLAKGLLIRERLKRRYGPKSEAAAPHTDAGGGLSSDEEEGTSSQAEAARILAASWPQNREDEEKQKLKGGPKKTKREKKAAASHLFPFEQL

fold more XPC bound than to nonmodified GST-TDG [1]: 2 fold
stimulation by XPC-RAD23B (up to 4 nM, dose-dependent) of uracil excision from G/U mismatch DNA (1.6 nM) by 2 nM SUMO-1-conjugated His-TDG, nicking assay, 120 minutes [2]: 5 fold
Molecule: XPC-RAD23B-His heterodimer (from UniProt Q01831 1-940; P54727 1-409) (complex)

stimulation by XPC-RAD23B (various concentrations) of uracil excision from a 60-bp G/U mismatch DNA (1.6 nM) by 0.42 nM His-TDG, nicking assay, 30°C [3]: 5 fold
stimulation by XPC-RAD23B (up to 2 nM, dose-dependent) of uracil excision from 60-bp G/U mismatch DNA (1.6 nM) by 2.5 pM SMUG1, nicking assay, 120 minutes [4]: 4 fold
B1: XPC-RAD23B-His heterodimer (complex, human)
chain 1: MARKRAAGGEPRGRELRSQKSKAKSKARREEEEEDAFEDEKPPKKSLLSKVSQGKRKRGCSHPGGSADGPAKKKVAKVTVKSENLKVIKDEALSDGDDLRDFPSDLKKAHHLKRGATMNEDSNEEEEESENDWEEVEELSEPVLGDVRESTAFSRSLLPVKPVEIEIETPEQAKTRERSEKIKLEFETYLRRAMKRFNKGVHEDTHKVHLLCLLANGFYRNNICSQPDLHAIGLSIIPARFTRVLPRDVDTYYLSNLVKWFIGTFTVNAELSASEQDNLQTTLERRFAIYSARDDEELVHIFLLILRALQLLTRLVLSLQPIPLKSATAKGKKPSKERLTADPGGSSETSSQVLENHTKPKTSKGTKQEETFAKGTCRPSAKGKRNKGGRKKRSKPSSSEEDEGPGDKQEKATQRRPHGRERRVASRVSYKEESGSDEAGSGSDFELSSGEASDPSDEDSEPGPPKQRKAPAPQRTKAGSKSASRTHRGSHRKDPSLPAASSSSSSSKRGKKMCSDGEKAEKRSIAGIDQWLEVFCEQEEKWVCVDCVHGVVGQPLTCYKYATKPMTYVVGIDSDGWVRDVTQRYDPVWMTVTRKCRVDAEWWAETLRPYQSPFMDREKKEDLEFQAKHMDQPLPTAIGLYKNHPLYALKRHLLKYEAIYPETAAILGYCRGEAVYSRDCVHTLHSRDTWLKKARVVRLGEVPYKMVKGFSNRARKARLAEPQLREENDLGLFGYWQTEEYQPPVAVDGKVPRNEFGNVYLFLPSMMPIGCVQLNLPNLHRVARKLDIDCVQAITGFDFHGGYSHPVTDGYIVCEEFKDVLLTAWENEQAVIERKEKEKKEKRALGNWKLLAKGLLIRERLKRRYGPKSEAAAPHTDAGGGLSSDEEEGTSSQAEAARILAASWPQNREDEEKQKLKGGPKKTKREKKAAASHLFPFEQL
chain 2: MQVTLKTLQQQTFKIDIDPEETVKALKEKIESEKGKDAFPVAGQKLIYAGKILNDDTALKEYKIDEKNFVVVMVTKPKAVSTPAPATTQQSAPASTTAVTSSTTTTVAQAPTPVPALAPTSTPASITPASATASSEPAPASAAKQEKPAEKPAETPVATSPTATDSTSGDSSRSNLFEDATSALVTGQSYENMVTEIMSMGYEREQVIAALRASFNNPDRAVEYLLMGIPGDRESQAVVDPPQAASTGAPQSSAVAAAAATTTATTTTTSSGGHPLEFLRNQPQFQQMRQIIQQNPSLLPALLQQIGRENPQLLQQISQHQEHFIQMLNEPVQEAGGQGGGGGGGSGGIAEAGSGHMNYIQVTPQEKEAIERLKALGFPEGLVIQAYFACEKNENLAANFLLQQNFDED

binding result [5]: binds
B2: His-tagged RAD23B (RAD23B-His) (natural protein, human, UniProt P54727 1-409, looked up)
chain: MQVTLKTLQQQTFKIDIDPEETVKALKEKIESEKGKDAFPVAGQKLIYAGKILNDDTALKEYKIDEKNFVVVMVTKPKAVSTPAPATTQQSAPASTTAVTSSTTTTVAQAPTPVPALAPTSTPASITPASATASSEPAPASAAKQEKPAEKPAETPVATSPTATDSTSGDSSRSNLFEDATSALVTGQSYENMVTEIMSMGYEREQVIAALRASFNNPDRAVEYLLMGIPGDRESQAVVDPPQAASTGAPQSSAVAAAAATTTATTTTTSSGGHPLEFLRNQPQFQQMRQIIQQNPSLLPALLQQIGRENPQLLQQISQHQEHFIQMLNEPVQEAGGQGGGGGGGSGGIAEAGSGHMNYIQVTPQEKEAIERLKALGFPEGLVIQAYFACEKNENLAANFLLQQNFDED
